Results as given in patent US20260355328A1, “A complex comprising a cargo and a targeting moiety binding intelectin-1” (Stichting Radboud universitair medisch centrum, priority 2022, published 2026).
“Also recorded” adds a separate entry of the source.

Key:
[1] = literature; cited from earlier work
ITLN-1 = conditions: intestinal epithelial cells, literature; cited from earlier work
[2] = literature; cited from earlier work; remark: listed apart in the source
[3] = Biodistribution of full-length lactoferrin, lactoferricin and hLF-6 in LPS-challenged mice (IVIS); format: in vivo; conditions: fluorescent label, i.v., 2 h
Description: Lactoferrin and lactoferricin are cloned in an expression plasmid containing the C-terminal Sortase-sequence protein-LPETG-HHHHHH. LPETGHHHHHH is SEQ ID NO: 98. Next, the protein is expressed overnight in E. coli and purified from sonicated bacterial cell lysates by Ni-NTA beads using 400 mM imidazole to elute the proteins. After overnight dialysis, full-length lactoferrin and hLF-6 are labelled by means of a Sortase exchange reaction on the C-terminus with a fluorescent dye (Alexa647 or Cy5.5) for 2 h at 4 °C using a fluorescently labelled donor peptide (formula:biotin-GSSG-LPETG-label or biotin-GSSG-LPETG-PEG40k-label) as substrate GSSGLPETG is SEQ ID NO: 99. Excess donor peptide is removed by means of streptavidin binding of the biotin tag on the N-terminus of the donor peptide. Next, the purified labelled protein/peptide is injected into LPS-challenged mice via intravenous injection in the tail vein. Mice are sacrificed after 2 h, and organs harvested for imaging by IVIS. Biodistribution is quantified for each organ, and relative distribution is shown.

B1: full-length lactoferrin: full-length human lactoferrin protein (protein, UniProt P02788 1-710, looked up)
chain: MKLVFLVLLFLGALGLCLAGRRRSVQWCAVSQPEATKCFQWQRNMRKVRGPPVSCIKRDSPIQCIQAIAENRADAVTLDGGFIYEAGLAPYKLRPVAAEVYGTERQPRTHYYAVAVVKKGGSFQLNELQGLKSCHTGLRRTAGWNVPIGTLRPFLNWTGPPEPIEAAVARFFSASCVPGADKGQFPNLCRLCAGTGENKCAFSSQEPYFSYSGAFKCLRDGAGDVAFIRESTVFEDLSDEAERDEYELLCPDNTRKPVDKFKDCHLARVPSHAVVARSVNGKEDAIWNLLRQAQEKFGKDKSPKFQLFGSPSGQKDLLFKDSAIGFSRVPPRIDSGLYLGSGYFTAIQNLRKSEEEVAARRARVVWCAVGEQELRKCNQWSGLSEGSVTCSSASTTEDCIALVLKGEADAMSLDGGYVYTAGKCGLVPVLAENYKSQQSSDPDPNCVDRPVEGYLAVAVVRRSDTSLTWNSVKGKKSCHTAVDRTAGWNIPMGLLFNQTGSCKFDEYFSQSCAPGSDPRSNLCALCIGDEQGENKCVPNSNERYYGYTGAFRCLAENAGDVAFVKDVTVLQNTDGNNNEAWAKDLKLADFALLCLDGKRKPVTEARSCHLAMAPNHAVVSRMDKVERLKQVLLHQQAKFGRNGSDCPDKFCLFQSETKNLLFNDNTECLARLHGKTTYEKYLGPQYVAGITNLKKCSTSPLLEACEFLRK
modifications: full-length
notes: full-length human lactoferrin protein
- biodistribution of radioactive-labelled full-length protein [1]: comprise multiple organs and not primarily the kidney; also recorded: distribution to many organs
- uptake upon overexpression of ITLN-1 (ITLN-1): increases uptake of lactoferrin in endosomes
- ribonuclease activity [2]: pyrimidine-specific ribonuclease activity
- bio-distribution [3]: accumulation predominantly in liver and spleen and less in kidney, brain and intestine
